According to the DeepSol protein solubility set:

Assay: soluble on expression in E. coli; label from the status in PepcDB or PDB records

Row | Sequence | soluble on expression in E. coli
1 | MCLEPIIAPISSELLEQELTADRFLRMTNKAGNEIYVFTAEEAPHCMKEVGRLREEAFRHYGGGTGKAIDIDEFDTMPGSYKQLIVWDPQNKAILGGYRFIYGRDVAFDTDGKPLLATAEMFRFSDAFLHDYLPYTVELGRSFVSLQYQSTRMGTKAIFVLDN | not soluble
2 | MCLNRVNEWVLEFNSRTKKLLIDLNKRLPGAKFSFADTYPAVLDLINNPTHYGFKIANTSCCNVDTSVGGLCLPNSKMCKNRQDFVFWDAFHPSDSANQILADHLFSSLLSSSSPSPAPKPRQ | not soluble
3 | MCMIVYFFFIHKPLAFYFIRLFHPHPFPVVLDHILLLISSLIGFKSQDSSFRHQNSDCQMNVFQVIIFLLSVLAVFSSADLSIDGESLVLSINEEGPIKVRRARETGEH | not soluble
4 | MCMSLRESAAAADAGAGPLAGSARDLLAQWNGGEDVWVFAYGSLIWRPDFAWQERRLATVRGYHRSLLWSHDHRGSPDNPGLVFGLDRGGCCRGVAFRVAGRDVPEVFQALWHREMSGGAYKPRWLRCHTGQAPVRGLAFVPDRRCRHYAGALSDELLIRAVRQAVGRSGACLDYVRETHRALNEHGIVDWRLGALVDRLAQPLEHHHHHH | not soluble
5 | MCMVKVWVEKLLDEPELYILRLDDSEIKHFEAAWSIPEGITYNAYLMKVGDAVVLFDTWKGEYTEKFLESLSTLVDPKEITHIIVHHTEPDHSGALPKLLELNEYRAKLIGTTFAKNLLQGFYGDKVVENFHTIKDGEEVKIGNRTFRFITVPWLHWPDTMITYDVEDKLIFSCDAGGGYGIPEAIDDSDEDVVKKYLPYVTKYIVTVIGHYHKYIVQNIKKLKELGIIENANMILPGHGLIWRKSPTRIFEHYERVGAGIPTKDKVLVIYDSMYGFVEKRMSVVIEELKRYGKKPVVYRFTDKENPAISDILGEVPDSEALVIGVSTYEADIHPRMRCALYEILDKANYEKPVLIVGAFGWGGVAGKKVETLISRSKFELVDVVETKGRMTSEDEERLREAVRKLIQWQL | soluble
6 | MCTSLTLETKNGQHLFARTMDFTLDMNQEVIIIPRHYQWNNITGEIINTKHATVGMGINHQGRIIMADGVNEAGMTCATLYFPGFATYSQSIDDNTTNLAPFDFVTWSLTQFNSVKELKKSVDSITFLDIPLPDLGLTPPLHWILADKWGDCIVLDPTSEGLKLYDNPLGVMTNSPEFNWHLQNLRQYIGLKSQPFAPTEWSNLPLSAFGQGSGSMGLPGDFTPPSRFVRAAYGKQNIQGIDSEEEGVSALFHILSNCEVPKGGVITEEGALDNTIYTSVMCMESGTYYYHTYDCRQIIAVHLFHENLDTDEIKAYPFQRKQKIFYEN | not soluble
7 | MDAARFPADARVRVLARRFPPYHRDSPCLAILDRFLHDPTLSAAAVVDDAMRPVGLIDRYSLVEQFLHPYSRDLYHKHSIAAFMDPEPVIVEADSSIDDLSRIIIDAGMRHMVSGFIVTEDGLYLGIGSGHDLFEEVANRKQNHLYHLAHYDPLTSLPNRLLLNDRLKRACLRGQRGGYRIALLFIDLDRFKLVNDTLGHAAGDQLLQGVAGRFAACVRKVDTVARLGGDEFTVLLEPVQGPDEALAVAAKLAQSLERPFLIQNHEITTSASIGVVLFPEHDATVEGLMRKADAAMYCAKREGRNRFALFTEEMNSTVVERVTLESYLNAALEKGEFCCHFQPQMATADDRIVGVEALLRWTNPVLGRVPPLKFIPVAEDTGLILPLGLWALETACAQQVRWLSQGLPPLRMAVNISPLQFRNREFCDQVRAIVQRTGIRAEHLELELTESAVMADAESSVGILRELRDSGIRLAIDDFGTGYSSLSYLRKFPLDRLKIDRSFVSGIDRIPANELIVKAIVALGGSLGLDVIAEGVETPEELECIERCGCSEYQGFRLSEPLTAEDFAHWFEDSGYVLEHHHHHH | not soluble
8 | MDAIMMEHRNDFWVFGYGSLMWRPGFAHVETVRARLHGYRRSLCIYSHVHRGTPDHPGLVLGLDTGGSCLGIAFRVPGDMTDEVMTYLREREMANKVYHEKKLHLRLADGRIVEAVAYVADRRHRQYAGRMTSEKAAAIIASAQGESGANIDYVTNTLMHLRNMRVRDHALEHINELVLAAASRQANNAALEHHHHHH | soluble
